For 1 substance, stoichiometry N results are on record in article PMC10690159.

In this assay the target is SARS-CoV-2 Nsp15 catalytically inactive mutant H234A (SARS-CoV-2). Put plainly: cryo-EM structure.

Take “SARS-CoV-2 Nsp15 catalytically inactive mutant H234A (enzyme)”: the stoichiometry N was 6.
